Laboratory results from publication PMC4592971.

Molecular target: full length RhoA (Q63L) as it stands in the constitutively GTP-loaded DORA-RhoA biosensor (UniProt P61586)
Test: FRET or BRET; FRET inside the single-chain DORA-RhoA biosensor (CFP on RhoA, YFP on the PKN1 domain) in living HeLa cells; single cell emission spectra and frequency domain FLIM of the donor (75.1 MHz)

UniProt P61586, sequence (P61586 whole entry Q63L, the tested form may be a part): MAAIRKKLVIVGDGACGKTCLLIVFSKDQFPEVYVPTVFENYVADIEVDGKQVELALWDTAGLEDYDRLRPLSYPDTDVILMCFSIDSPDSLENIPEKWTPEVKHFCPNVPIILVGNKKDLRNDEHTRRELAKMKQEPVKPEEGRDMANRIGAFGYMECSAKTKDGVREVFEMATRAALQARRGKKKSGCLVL

median donor fluorescence lifetime (FLIM): 2.4 ns
Substance: Rho binding domain of PKN1 (cpPKN) as it stands in the DORA-RhoA biosensor (domain or fragment)
